Source: patent US9322000B2, “Methanol dehydrogenase enzymes from Bacillus” (Sinvent AS, priority 2012, dated 2016)
“Also recorded” adds a separate entry of the source.

Experiments:
[1] = In vivo Mdh activity in cell suspensions of recombinant E. coli (formaldehyde accumulating in supernatant); type: cell-based; conditions: 37° C., −Act; E. coli cell suspension
Description: (§1) The genes coding for Mdh and the Mdh activator protein Act were amplified from pET21a-plasmids harboring genes from B. methanolicus strains MGA3 (mdh-MGA3, mdh2-MGA3, mdh3-MGA3 and act-MGA3) and PB1 (mdh-PB1, mdh1-PB1 and mdh2-PB1). The genes were then cloned either into the pSEVA424 plasmid (mdh genes) or in the pSEVA131 plasmid (act gene). For cloning of mdh-MGA3, mdh-PB1, mdh1-PB1 and act-MGA3, EcoRI and HindIII restrictions sites were used, while mdh2-MGA3, mdh2-PB1 and mdh3-MGA3 were cloned by using EcoRI and PstI restriction sites. The resulting expression vectors were transformed into electrocompetent wt E. coli K-12 (BW25113) and into E. coli K-12 (BW25113) with a deleted frmA gene.
(§2) Expression Experiments For expression experiments, the cells were cultivated in either Luria-Bertani (LB) medium for in vitro assays or in M9 medium for in vivo assays both containing 20 μg/ml streptomycin for pSEVA424. When Act was co-expressed the medium was supplemented with 100 μg/ml ampicillin. Expression was induced when cells reached OD 0.5 (for in vitro tests) or OD 1 (for in vivo tests) by adding 0.1 mM IPTG (final concentration) for 6 hours. Cells were then harvested by centrifugation. For in vitro assays, crude cell extract was prepared by lysing the cells in a French press following ultracentrifugation. Alternatively, cells were resuspended in M9-medium without glucose for in vivo activity measurements. Enzyme Assays
In vivo measurements of Mdh activity: For determination of Mdh activity in cell suspensions, cells were harvested after IPTG induction, washed and resuspended in M9-medium without glucose and IPTG. OD600 was set to 1 for normalization. […] The assay was started by addition of 1 M methanol and subsequent measurement of accumulating formaldehyde in the supernatant resulting from the methanol dehydrogenase catalyzed oxidation of methanol. The calculated activities were based on the assumption that 1 l of an OD1 culture contains 0.3 g biomass of which 50% is protein.

[2] = Formaldehyde reductase assay of purified MDH proteins; type: biochemical; conditions: 45° C., formaldehyde reductase activity
Protocol: (§3) Alcohol dehydrogenase activities were measured spectrophotometrically essentially as described previously (Hektor, Kloosterman et al. (2002) Chem 277(49): 46966-46973) and the reaction mixture contained: 100 mM Glycine-KOH pH 9.5 (unless otherwise stated), 5 mM MgSO4, 0.5 mM NAD^+ and 500 mM alcohol (methanol, ethanol, propanol, 1,3-propanediol, or butanol). NAD^+ was substituted with equal concentrations of NADP^+, FMN^+, and FAD^+, when indicated. The reaction mixture for measurements of formaldehyde reductase activity contained: 50 mM Potassium-phosphate buffer pH=6.7, 0.15 mM NADH, 1 mM DTT and 11.6 mM (0.1-116 mM) formaldehyde. The assay components were mixed in the cuvette and pre-warmed to 45° C., unless otherwise stated. The reactions were started by addition of 5-40 μg of the purified MDH proteins, and the production of NADH was monitored at 340 nm for 4 minutes. One unit of MDH activity was defined as the amount of enzyme needed to produce 1 μmol NADH per minute under the conditions described above. Purified Act (0.1-40 μg) or NudF (20 μg) proteins were added to the reaction mixtures as indicated in the text.
(§4) The purified MDH and Act proteins (20 μg) were used in the kinetic experiments performing the methanol dehydrogenase and the formaldehyde dehydrogenase assays essentially as described above. […] For determination of the Km for NAD^+ (Km,NAD+) and Vmax, the methanol concentration was kept constant at a saturating level (500 mM), while the concentration of NAD^+ was varied (5-1000 μM). […] Act (20 μg) was added to the reaction mixtures for determination of Kμ,MεOH and Vmax values in the presence of this activator, as indicated in the text. In general, the slopes of activity versus time were linear in the measured period (data not shown). Km and Vmax values were calculated by using nonlinear regression with the Microsoft Excel solver-tool to fit the measured data to the Michaelis-Menten equation, as described previously (Jakobsen et al., (2009) Appl Environ Microbiol 75(3): 652-661). The values obtained from the regression were then compared to the values obtained from Lineweaver-Burk and Hanes-Woolf plots to ensure that the global minimum, not a local minimum, had been found.

[3] = In vitro Mdh activity in crude cell extracts of recombinant E. coli; type: biochemical; conditions: −Act, expressed in E. coli, crude cell extract
Description: as §1, §2
In vitro measurements of Mdh activity: For determination of Mdh activity in crude cell extracts, the Mdh dependent formation of NADH was monitored at 340 nm. The assays were performed either at 37° C. or 45° C. in prewarmed buffer solutions. The Mdh assay contained 10-20 μg enzyme, 50 mM K2HPO4-buffer, pH7.4, 2.5 mM MgCl and 0.5 mM of NAD^+ (final concentrations). After 5 min of preincubation, the reaction was started with 1 M of methanol (final concentration).

[4] = Substrate specificity of purified MDH proteins on alternative alcohols; type: biochemical; conditions: all alternative alcohol substrates
Protocol: FIG. 3. Catalytic activities of purified Mdh (black), Mdh2 (dark grey) and Mdh3 (light grey) on various alcohols (200 mM) tested in vitro. (A) Substrate specificity was analysed for MDHs from B. methanolicus MGA3 in vitro. Alcohol substrates were used at concentrations of 500 mM except for pentanol (300 mM) and hexanol (50 mM). The data were calculated from the mean value from two experiments which were done in triplicate. (B) Substrate specificity for MDHs from B. methanolicus PB1 was analysed in vitro. Alcohol substrates were used at concentrations of 500 mM except for pentanol (300 mM) and hexanol (50 mM). The data were calculated from the mean value from two experiments which were done in triplicate.
Alcohol dehydrogenase activities were measured spectrophotometrically essentially as described previously (Hektor, Kloosterman et al. (2002) Chem 277(49): 46966-46973) and the reaction mixture contained: 100 mM Glycine-KOH pH 9.5 (unless otherwise stated), 5 mM MgSO4, 0.5 mM NAD^+ and 500 mM alcohol (methanol, ethanol, propanol, 1,3-propanediol, or butanol). NAD^+ was substituted with equal concentrations of NADP^+, FMN^+, and FAD^+, when indicated. […] The reactions were started by addition of 5-40 μg of the purified MDH proteins, and the production of NADH was monitored at 340 nm for 4 minutes. […]

[5] = Methanol dehydrogenase assay of purified recombinant MDH proteins (NADH production at 340 nm); type: biochemical
Protocol: as §3, §4

[6] = Heat stability: pre-incubation of purified MDHs at 45° C. or 60° C. prior to the enzyme assay; type: biochemical; conditions: preincubation at 60° C.; compared to the remaining MDHs
Protocol: FIG. 5. (A) Temperature stability of MGA3 Mdh, Mdh2 and Mdh3 was tested in vitro. Enzymes were incubated at 45° C. or at 60° C. prior to the enzyme assay. (B) Temperature stability of PB1 Mdh, Mdh1 and Mdh2 was tested in vitro. Enzymes were incubated at 45° C. or at 60° C. prior to the enzyme assay.
The heat stability of the six MDHs was tested by pre-incubation of the proteins at 45° C. and 60° C. and samples were taken at different time points for enzyme assays. As expected, all enzymes retained essentially all catalytic activity upon preincubations at 45° C. (FIG. 5). […] A selection of the experiments was repeated in the presence of equal amounts of purified Act, and this had no effect on temperature stability for any of the MDHs (data not shown).

B1: Mdh2-PB1: NAD-dependent methanol dehydrogenase encoded by chromosomal gene mdh2-PB1 of B. methanolicus PB1, SEQ ID NO. 6 (protein)
chain: MTNTQSIFYIPSVNLFGPGSVNEVGTRLAGLGVKKALLVTDAGLHGLGLSEKIASIIREAGVEVLIFPKAEPNPTDKNVAEGLEVYNAENCDSIVTLGGGSSHDAGKGIALVAANGGTIYDYEGVDKSKKPMVPLIAINTTAGTGSELTRFTIITDTERKVKMAIVDKHVTPTLSINDPELMVGMPPSLTAATGLDALTHAIEAYVSTAATPITDALAIQAIKIISKYLPRAFANGKDMEAREQMAFAQSLAGMAFNNASLGYVHAIAHQFGGFYNFPHGVCNAILLPHVCRFNLISKVERFAEIAALLGENVAGLSTREAAEKGIKAIERMAKDLNIPRGFKELGAKEEDIVTLAENAMKDATALTNPRKPKLEEVIQIIKNAM
modifications: Bacillus methanolicus PB1
In vivo activity [1]: 3 mU/mg | Vmax, variable substrate Formaldehyde [2]: 1.12 U/mg | Km ([2]; read-out: Km, variable substrate Formaldehyde): 1.3 mM | In vitro activity ([3]; 37° C.): 33 mU/mg | In vitro activity ([3]; 45° C.): 103 mU/mg | catalytic activity on alternative alcohols compared with the remaining MDHs [4]: significantly higher catalytic activity than the remaining enzymes | Vmax, variable substrate Methanol + Act ([5]; 45° C., pH 9.5, 20 μg MDH + 20 μg Act): 0.24 U/mg | Km ([5]; 45° C., pH 9.5, 20 μg MDH + 20 μg Act, read-out: Km, variable substrate Methanol + Act): 36 mM | Vmax, variable substrate Methanol ([5]; 45° C., pH 9.5, absence of Act): 0.065 U/mg | reduction of Km,MeOH in the presence of Act ([5]; Act added vs. no Act): 4 fold | temperature stability in vitro (in words) [6]: Higher Temperature Stabilities; also recorded: only moderate negative effects; also recorded: improved thermostability
